For one series, the target named is T1, DExH15 (Arabidopsis thaliana, UniProt B9DFG3 1-1171).
T1 sequence: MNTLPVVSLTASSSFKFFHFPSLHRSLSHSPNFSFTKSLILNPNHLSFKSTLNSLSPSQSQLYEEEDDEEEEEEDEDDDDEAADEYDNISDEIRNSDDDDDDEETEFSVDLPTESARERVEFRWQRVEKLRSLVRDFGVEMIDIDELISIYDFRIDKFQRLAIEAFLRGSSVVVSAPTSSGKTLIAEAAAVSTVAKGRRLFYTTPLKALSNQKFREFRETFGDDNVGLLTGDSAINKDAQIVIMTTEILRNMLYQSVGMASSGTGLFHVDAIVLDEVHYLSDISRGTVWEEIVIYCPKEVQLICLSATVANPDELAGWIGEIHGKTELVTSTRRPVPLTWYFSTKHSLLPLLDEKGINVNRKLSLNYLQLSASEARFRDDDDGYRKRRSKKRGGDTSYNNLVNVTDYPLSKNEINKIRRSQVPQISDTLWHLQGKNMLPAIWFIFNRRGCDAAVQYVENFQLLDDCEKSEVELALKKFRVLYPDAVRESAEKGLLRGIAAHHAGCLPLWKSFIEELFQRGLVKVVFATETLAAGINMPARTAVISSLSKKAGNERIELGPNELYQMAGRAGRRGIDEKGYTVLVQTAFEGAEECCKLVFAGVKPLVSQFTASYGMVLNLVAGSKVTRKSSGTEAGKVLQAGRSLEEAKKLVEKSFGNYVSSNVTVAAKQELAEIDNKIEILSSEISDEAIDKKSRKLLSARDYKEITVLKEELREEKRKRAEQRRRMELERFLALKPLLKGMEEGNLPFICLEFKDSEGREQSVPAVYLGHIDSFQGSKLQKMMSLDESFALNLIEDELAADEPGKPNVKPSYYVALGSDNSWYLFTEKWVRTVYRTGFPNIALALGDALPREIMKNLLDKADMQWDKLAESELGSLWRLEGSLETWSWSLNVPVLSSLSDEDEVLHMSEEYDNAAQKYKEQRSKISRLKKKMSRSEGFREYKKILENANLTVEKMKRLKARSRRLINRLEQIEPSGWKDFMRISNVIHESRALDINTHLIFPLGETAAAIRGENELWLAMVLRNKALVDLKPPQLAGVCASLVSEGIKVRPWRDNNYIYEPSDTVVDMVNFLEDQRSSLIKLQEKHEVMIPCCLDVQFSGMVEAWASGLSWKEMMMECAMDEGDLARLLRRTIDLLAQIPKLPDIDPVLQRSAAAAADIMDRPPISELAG
The series can be described thus: MST; preferred substrate (3' tail rG4); EC50 only in figure; MST: 20 nM FAM-RNA, buffer not in material; pull-down: 20 mM Tris-HCl pH 7.5, 300 mM KCl, 0.1% Tween-20, 2 mM EDTA, RNase inhibitor, 4 °C 4 h. To be noted: protein: recombinant; tags: 6xHis-SUMO removed; label: 3'-FAM; G4, 3' ss tail 15 nt.

Another series deals with T2, DExH1 (Arabidopsis thaliana, UniProt F4ILR7 1-995).
T2 sequence: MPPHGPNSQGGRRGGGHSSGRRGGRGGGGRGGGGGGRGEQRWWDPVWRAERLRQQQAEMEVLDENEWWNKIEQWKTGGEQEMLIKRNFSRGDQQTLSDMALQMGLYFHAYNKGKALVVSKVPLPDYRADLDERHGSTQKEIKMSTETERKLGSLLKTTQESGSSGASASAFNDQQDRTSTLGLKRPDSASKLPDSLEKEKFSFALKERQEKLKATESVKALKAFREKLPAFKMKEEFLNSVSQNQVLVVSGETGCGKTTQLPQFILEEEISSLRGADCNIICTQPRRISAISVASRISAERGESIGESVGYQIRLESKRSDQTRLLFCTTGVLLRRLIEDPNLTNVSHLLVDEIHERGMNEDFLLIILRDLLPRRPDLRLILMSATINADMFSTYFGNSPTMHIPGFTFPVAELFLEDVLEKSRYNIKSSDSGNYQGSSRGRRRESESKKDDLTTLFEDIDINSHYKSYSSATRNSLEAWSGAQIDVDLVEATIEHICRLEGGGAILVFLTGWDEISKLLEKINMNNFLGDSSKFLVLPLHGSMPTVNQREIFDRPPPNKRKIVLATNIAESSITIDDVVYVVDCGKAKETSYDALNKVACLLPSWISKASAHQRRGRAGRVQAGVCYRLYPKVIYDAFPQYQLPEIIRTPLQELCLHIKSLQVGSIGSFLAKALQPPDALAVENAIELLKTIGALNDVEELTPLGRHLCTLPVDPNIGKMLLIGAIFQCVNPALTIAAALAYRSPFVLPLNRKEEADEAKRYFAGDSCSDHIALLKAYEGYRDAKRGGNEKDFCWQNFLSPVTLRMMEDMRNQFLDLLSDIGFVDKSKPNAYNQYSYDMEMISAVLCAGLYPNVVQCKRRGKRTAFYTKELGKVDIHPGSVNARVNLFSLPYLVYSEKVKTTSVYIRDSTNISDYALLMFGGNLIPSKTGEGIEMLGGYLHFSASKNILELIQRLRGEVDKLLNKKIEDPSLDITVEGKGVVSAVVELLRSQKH
Described as above. As to conditions: protein: recombinant; tags: 6xHis-SUMO removed; label: 3'-FAM; G4, 3' ss tail 15 nt.

Take GGGAGGGAAGGGGAAGGGGUUUUUUUUUUUUUUU (structured_RNA) [G4S (3' tail rG4)]: the binding result with DExH15 and with DExH1 was “binds” each time.

Source of the values: article PMC9293640, “Insights into the structural dynamics and helicase-catalyzed unfolding of plant RNA G-quadruplexes”.
